Three molecules from US20030166196A1 (published 2003) can be followed below.

Experiment [1] has as its target T1, human CD5 cell differentiation marker (human, UniProt P06127 25-495).
T1 construct: whole, on cells; also called CD5 antigen; human T cell determinant CD5
T1 sequence: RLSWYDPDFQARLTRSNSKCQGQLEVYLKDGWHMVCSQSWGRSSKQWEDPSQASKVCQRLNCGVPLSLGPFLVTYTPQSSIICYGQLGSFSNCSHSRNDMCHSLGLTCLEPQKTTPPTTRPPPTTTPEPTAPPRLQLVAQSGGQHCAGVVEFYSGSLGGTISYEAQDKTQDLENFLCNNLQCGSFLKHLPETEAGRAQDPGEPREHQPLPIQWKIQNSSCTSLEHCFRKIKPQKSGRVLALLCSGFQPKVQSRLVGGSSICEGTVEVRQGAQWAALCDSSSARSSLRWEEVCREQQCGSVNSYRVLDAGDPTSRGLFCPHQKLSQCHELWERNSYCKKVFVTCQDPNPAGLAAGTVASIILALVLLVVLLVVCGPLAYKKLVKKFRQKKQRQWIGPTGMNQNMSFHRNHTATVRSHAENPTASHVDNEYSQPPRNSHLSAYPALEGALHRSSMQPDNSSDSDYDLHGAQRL
Briefly: competition with 125I-cH65 IgG on Molt-4M cells.

Experiment [2] concerns the target T1, human CD5 cell differentiation marker. The experiment in a line: cell-based or functional assay.

B1: chimeric H65 IgG (antibody, V domains shown)
VL: […]
VH: QIQLVQSGPELKKPGETVKISCKASGYTFTNYGMNWVKQAPGKGLRWMGWINTHTGEPTYADDFKGRFAFSLETSASTAYLQINNLKNEDTATYFCTRRGYDWYFDVWGAGTTVTVSS
notes: also called 125I-cH65 IgG
Regarding B1, the binding result in experiment [1] is reported as “binds”.

B2: he3Fab-rGelA50(C44) (other)
light: DIQMTQSPSSLSASVGDRVTITCRASQDINSYLSWFQQKPGKAPKTLIYRANRLESGVPSRFSGSGSGTDYTLTISSLQYEDFGIYYCQQYDESPWTFGGGTKLEIK
heavy: EIQLVQSGGGLVKPGGSVRISCAASGYTFTNYGMNWVRQAPGKGLEWMGWINTHTGEPTYADSFKGRFTFSLDDSKNTAYLQINSLRAEDTAVYFCTRRGYDWYFDVWGQGTTVTVSS
chain: GLDTVSFSTKGATYITYVNFLNELRVKLKPEGNSHGIPLLRKKCDDPGKAFVLVALSNDNGQLAEIAIDVTSVYVVGYQVRNRSYFFKDAPDAAYEGLFKNTIKTRLHFGGSYPSLEGEKAYRETTDLGIEPLRIGIKKLDENAIDNYKPTEIASSLLVVIQMVSEAARFTFIENQIRNNFQQRIRPANNTISLENKWGKLSFQIRTSGANGMFSEAVELERANGKKYYVTAVDQVKPKIALLKFVDKDPK
Consider B2, for which, in experiment [2], the “IC50 (pMT), whole cell cytotoxicity, CEM Cells” value amounted to 173 pMT and the “IC50 (pMT), whole cell cytotoxicity, HSB2 Cells” value is 165 pMT.

B3: he3 IgG (human-engineered H65 antibody, moderate-risk changes, ATCC HB 11206) (antibody, V domains shown)
VH: B2 heavy
VL: B2 light
notes: also called he3 antibody; humanized antibody
On to B3, for which, in experiment [1], the binding result is recorded as “binds”.
